Experimental data: patent publication US20240124563A1

What was measured:
[1] = molecular target: monkey MSLN full-length protein on HEK293T cells (monkey); assay: FACS, HEK293T-monkey-MSLN cells, antibody 20 nM
[2] = molecular target: monkey MSLN full-length protein on HEK293T cells (monkey); assay: FACS, HEK293T-monkey-MSLN cells, antibody 100 nM
[3] = molecular target: monkey MSLN full-length protein on HEK293T cells (monkey); assay: FACS, HEK293T-monkey-MSLN cells, antibody 0.032 nM
[4] = molecular target: monkey MSLN full-length protein on HEK293T cells (monkey); assay: FACS, HEK293T-monkey-MSLN cells, antibody 0.8 nM
[5] = molecular target: monkey MSLN full-length protein on HEK293T cells (monkey); assay: FACS, HEK293T-monkey-MSLN cells, antibody 4 nM
[6] = molecular target: monkey MSLN full-length protein on HEK293T cells (monkey); assay: FACS, HEK293T-monkey-MSLN cells, antibody 0.00128 nM
[7] = molecular target: monkey MSLN full-length protein on HEK293T cells (monkey); assay: FACS, HEK293T-monkey-MSLN cells, antibody 0.0064 nM
[8] = molecular target: monkey MSLN full-length protein on HEK293T cells (monkey); assay: FACS, HEK293T-monkey-MSLN cells, antibody 0.16 nM
[9] = molecular target: human MSLN-R3 protein on HEK293T cells (human) (UniProt Q13421); assay: FACS, HEK293T-hMSLN R3 cells
[10] = molecular target: monkey MSLN full-length protein on HEK293T cells (monkey); assay: FACS, HEK293T-monkey MSLN cells

human MSLN-R3 protein on HEK293T cells (human), sequence (Q13421 495-614, form in doubt): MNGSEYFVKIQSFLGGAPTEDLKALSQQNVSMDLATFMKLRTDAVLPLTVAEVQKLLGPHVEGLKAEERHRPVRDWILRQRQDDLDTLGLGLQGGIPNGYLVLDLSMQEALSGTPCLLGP

B1: Tab107 (YP3, hIgG1) (antibody, V domains shown)
VH: QEQLVESGGGLVQPGASLTLTCTASGIDFSRYYMCWVRQAPGKGLEGIACIYIGGSGSTYYASWAKGRFTISKASSTTVTLQMTSLTAADTATYFCARGTNLNYIFRLWGPGTLVTVSS
VL: DVVMTQTPSPVSAAVGGTVTIKCQASQSINNGLAWYQQKPGQPPRLLIYSASNLESGVPSRFKGSGSGTEFTLTISDLECDDAATYYCQCIWDGNSYVNAFGGGTEVVVRT
Work on B1 yielded an FACS signal (MFI) [1] of 3650, an FACS signal (MFI) [2] of 3930 and an FACS signal (MFI) [3] of 131. For the same binder, the FACS signal (MFI) [4] was 918, the FACS signal (MFI) [5] was 3140 and the FACS signal (MFI) [6] was 119. It also gave an FACS signal (MFI) [7] of 96 and an FACS signal (MFI) [8] of 288.

B2: Tab020 (YP223, rabbitIgG1) (antibody, V domains shown)
VH: QEQLEESGGDLVQPEGSLTLTCKASGLDFSSSYWICWVRQAPGKGLEWIGCRHTFTANTWSASWVNGRFTISRSTSLGTVDLKMTSLTAADTATYFCARDESNNDGWDFKLWGPGTLVTVSS
VL: AYDMTQTPASVSAAVGGTVTIKCQASQSISNYLAWYQQKPGQPPKLLIYQASTLAPGVSSRFKGSGSGTEFTLTISGVECADAATYYCQQGYTSSNVENVFGGGTGVVVGD
B2 showed an FACS signal (MFI) [1] of 100, an FACS signal (MFI) [2] of 126 and an FACS signal (MFI) [3] of 85. It also gave an FACS signal (MFI) [4] of 88, an FACS signal (MFI) [5] of 90 and an FACS signal (MFI) [6] of 85. For the same binder, the FACS signal (MFI) [7] was 85 and the FACS signal (MFI) [8] was 86.

B3: Tab106 (YP218, hIgG1) (antibody, V domains shown)
VH: QQQLEESGGGLVKPEGSLTLTCKASGFDLGFYFYACWVRQAPGKGLEWIACIYTAGSGSTYYASWAKGRFTISKASSTTVTLQMTSLAAADTATYFCARSTANTRSTYYLNLWGPGTLVTVSS
VL: DVVMTQTPASVSEPVGGTVTIKCQASQRISSYLSWYQQKPGQRPKLLIFGASTLASGVPSRFKGSGSGTEYTLTISDLECADAATYYCQSYAYFDSNNWHAFGGGTEVVVRT
For B3, the Mean Fluorescence Intensity of Cells [9] was 1690, the FACS signal (MFI) [1] was 2660 and the FACS signal (MFI) [2] was 3290. The FACS signal (MFI) [3] was 142, the FACS signal (MFI) [4] was 860 and the EC50 [10] was 1.15 nM. The Max MFI [10] was 8640, the FACS signal (MFI) [5] was 2440 and the FACS signal (MFI) [6] was 90. For the same binder, the FACS signal (MFI) [7] was 100 and the FACS signal (MFI) [8] was 313.
